Read-outs that look alike come from different tables or passages of the source.
T1: Cdc13p full-length (Saccharomyces cerevisiae, UniProt P32797 1-924)
T1 sequence: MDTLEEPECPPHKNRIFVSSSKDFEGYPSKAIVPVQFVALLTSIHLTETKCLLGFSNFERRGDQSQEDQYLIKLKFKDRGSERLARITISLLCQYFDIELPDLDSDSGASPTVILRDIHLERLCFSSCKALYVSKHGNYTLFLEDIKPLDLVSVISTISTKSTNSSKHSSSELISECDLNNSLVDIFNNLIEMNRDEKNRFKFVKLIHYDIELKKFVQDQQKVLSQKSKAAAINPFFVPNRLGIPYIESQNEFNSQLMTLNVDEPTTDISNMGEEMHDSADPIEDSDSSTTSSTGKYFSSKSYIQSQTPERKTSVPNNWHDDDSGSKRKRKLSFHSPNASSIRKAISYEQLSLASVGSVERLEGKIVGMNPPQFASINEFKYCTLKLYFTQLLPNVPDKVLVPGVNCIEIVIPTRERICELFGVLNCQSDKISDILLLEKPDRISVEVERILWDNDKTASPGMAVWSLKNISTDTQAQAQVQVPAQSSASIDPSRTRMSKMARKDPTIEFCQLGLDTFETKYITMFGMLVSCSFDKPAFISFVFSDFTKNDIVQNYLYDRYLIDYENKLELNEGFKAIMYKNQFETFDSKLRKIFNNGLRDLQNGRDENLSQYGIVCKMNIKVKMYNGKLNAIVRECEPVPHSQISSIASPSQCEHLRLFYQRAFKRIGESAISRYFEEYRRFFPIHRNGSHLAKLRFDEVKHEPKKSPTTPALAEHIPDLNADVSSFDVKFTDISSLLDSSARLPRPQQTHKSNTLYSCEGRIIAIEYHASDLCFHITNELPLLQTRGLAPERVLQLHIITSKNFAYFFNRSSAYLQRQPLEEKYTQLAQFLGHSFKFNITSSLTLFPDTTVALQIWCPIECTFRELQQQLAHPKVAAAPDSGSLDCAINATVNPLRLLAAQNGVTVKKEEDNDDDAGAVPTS

T2: Cdc13(DBD) (Saccharomyces cerevisiae, UniProt P32797 497-694)
T2 sequence: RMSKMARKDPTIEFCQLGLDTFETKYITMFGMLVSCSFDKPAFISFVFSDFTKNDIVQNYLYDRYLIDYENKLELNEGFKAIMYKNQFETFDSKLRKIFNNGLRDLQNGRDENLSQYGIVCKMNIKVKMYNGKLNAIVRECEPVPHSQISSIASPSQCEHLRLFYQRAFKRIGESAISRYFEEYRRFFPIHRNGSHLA


Legend:
Cdc13p full-length [1] = molecular target: T1, Cdc13p full-length; test: EMSA
Cdc13(DBD) [2] = molecular target: T2, Cdc13(DBD); test: filter binding
Cdc13p full-length [3] = molecular target: T1, Cdc13p full-length; test: footprinting
Cdc13(DBD) [4] = molecular target: T2, Cdc13(DBD); test: footprinting
Cdc13(DBD) [5] = molecular target: T2, Cdc13(DBD); test: footprinting; remark: listed apart in the source
Cdc13p full-length [6] = molecular target: T1, Cdc13p full-length; test: footprinting; remark: listed apart in the source

Binder | Kd (Cdc13p full-length [1]) [nM] | Kd (Cdc13(DBD) [2]) [nM] | further results
GTGTGGGTGTG (ssDNA) [TEL] | 0.43 ± 0.17 | 2.8 ± 0.6 | 
GTGTCTGTCTG (ssDNA) [TEL*] | 11 ± 3.8 | 620 ± 120 | 
GTGTCTGTCTGAAAAAAAAAA (ssDNA) [TEL*-a10] | 7.4 ± 2.4 | 380 ± 57 | 
GTGTCTGTCTGGG (ssDNA) [TEL*-GG] | 0.81 ± 0.03 |  | 
GTGTCTGTCTGGGG (ssDNA) [TEL*-GGG] | 2.2 ± 0.7 | 33 ± 5.7 | 
GTGTCTGTCTGGTGTGGG (ssDNA) [TEL*-GTGTGGG] | 0.81 ± 0.15 |  | 
GTGTCTGTCTGGTGGG (ssDNA) [TEL*-GTGGG] |  |  | binding result (Cdc13p full-length [3]): binds; binding result (Cdc13(DBD) [4]): binds
GTGTCTGTCTGTGTGGG (ssDNA) [TEL*-TGTGGG] |  |  | binding result (Cdc13(DBD) [5]): binds; binding result (Cdc13p full-length [6]): binds

Reference: PMC2632905
